Results from patent US11529424B2, “Synthetic bioconjugates” (Symic Holdings, Inc., priority 2017, dated 2022).
Values joined by “and” are separate entries in the source; they are usually repeats but may differ in a detail not shown here. Equal entries are not always repeated. “Also recorded” adds a separate entry of the source. Where two headings read alike, the source gives them in different places. Values belong to the molecule of their own block, whether it stands above or below them. Ends that are not written are not given here. * marks the point of attachment. NHNH2 = NN*

Key:
[1] = target: collagen; assay: Collagen-binding plate assay; details: for collagen binding EC50: compared to the EC50 for Compound 4
Method: The following method is used to assess the binding affinity of bioconjugates disclosed herein for collagen.
Collagen-binding of bioconjugate variants is compared by a plate-assay, in which collagen is coated on 96-well plates. Collagen is coated on high-bind plates at 50 μg/mL in 0.02 N acetic acid for 1 hour at room temperature. Unbound collagen is rinsed with 1×PBS pH 7.4. Plates are then blocked in 1% milk in 1×PBS solution for 1 hour at room temperature.
Bioconjugate variants containing biotinlyated peptides are dissolved to a final concentration of 1 mg/mL in 1% milk in 1×PBS pH 7.4. From this solution, a 10× serial dilution is performed. Molecules are then incubated on the blocked collagen-coated plates and incubated for 15 minutes at room temperature. Plates are then rinsed 3 times with 1×PBS in 1% BSA and 0.2% Tween20.
Bound molecules are detected by streptavidin-HRP, which was diluted 1:500 in 1× PBS with 1% BSA and 0.2% Tween20 and incubated 200 μL/well for 20 minutes at room temperature. Streptavidin solution is rinsed from the plates 3 times with 1×PBS with 0.2% Tween20. TMB Substrate solution is then added to each well 100 μL/well for 15 minutes at room temperature, and the color evolution was stopped with 100 μL sulfuric acid solution (0.16 M). Absorbance in the well is then measured at 450 nm and binding affinity plotted in a dose-response by absorbance vs. concentration.
This method was used to compare collagen binding affinity of various collagen-binding bioconjugates by comparing EC50 values. More specifically, the EC50 values for each bioconjugate was compared to the EC50 for Compound 4.

[2] = target: Collagen Type I (Homo sapiens, UniProt P02452+P08123); assay: Collagen Binding Assay 2; details: with GSGSGSRR spacer versus binding domain without spacer and spacer alone, FIG. 18 and 19
Sequence of Collagen Type I (P02452 162-1218 limits assumed): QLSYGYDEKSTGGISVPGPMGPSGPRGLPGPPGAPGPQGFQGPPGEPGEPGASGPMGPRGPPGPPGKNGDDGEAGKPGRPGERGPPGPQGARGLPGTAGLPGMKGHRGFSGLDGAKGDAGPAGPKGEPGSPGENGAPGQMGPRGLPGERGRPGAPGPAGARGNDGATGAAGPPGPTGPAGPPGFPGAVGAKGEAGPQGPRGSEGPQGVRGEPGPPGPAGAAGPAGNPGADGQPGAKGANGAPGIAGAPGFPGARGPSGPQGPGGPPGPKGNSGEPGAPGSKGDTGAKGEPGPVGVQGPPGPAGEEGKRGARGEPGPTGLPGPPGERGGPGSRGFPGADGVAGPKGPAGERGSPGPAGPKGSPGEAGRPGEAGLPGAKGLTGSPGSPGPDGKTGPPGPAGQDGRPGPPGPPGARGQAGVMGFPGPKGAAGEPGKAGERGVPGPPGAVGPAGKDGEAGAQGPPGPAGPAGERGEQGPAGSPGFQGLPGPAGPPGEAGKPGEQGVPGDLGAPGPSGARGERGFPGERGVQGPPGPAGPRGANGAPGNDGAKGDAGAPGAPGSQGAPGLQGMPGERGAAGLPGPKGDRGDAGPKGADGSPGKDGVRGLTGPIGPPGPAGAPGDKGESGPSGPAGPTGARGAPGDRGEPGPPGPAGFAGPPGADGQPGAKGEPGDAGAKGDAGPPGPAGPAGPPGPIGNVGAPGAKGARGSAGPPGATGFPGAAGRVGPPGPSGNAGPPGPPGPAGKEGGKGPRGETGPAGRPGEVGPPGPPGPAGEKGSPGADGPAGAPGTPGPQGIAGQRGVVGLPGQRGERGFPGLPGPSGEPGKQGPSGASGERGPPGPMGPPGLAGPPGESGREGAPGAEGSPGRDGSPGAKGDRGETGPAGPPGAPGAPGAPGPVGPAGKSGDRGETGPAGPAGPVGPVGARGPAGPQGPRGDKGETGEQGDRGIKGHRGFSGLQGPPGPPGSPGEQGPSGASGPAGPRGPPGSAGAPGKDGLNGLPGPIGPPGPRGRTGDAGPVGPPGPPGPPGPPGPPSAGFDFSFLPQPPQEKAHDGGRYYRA
Sequence of Collagen Type I (P08123 80-1119 limits assumed): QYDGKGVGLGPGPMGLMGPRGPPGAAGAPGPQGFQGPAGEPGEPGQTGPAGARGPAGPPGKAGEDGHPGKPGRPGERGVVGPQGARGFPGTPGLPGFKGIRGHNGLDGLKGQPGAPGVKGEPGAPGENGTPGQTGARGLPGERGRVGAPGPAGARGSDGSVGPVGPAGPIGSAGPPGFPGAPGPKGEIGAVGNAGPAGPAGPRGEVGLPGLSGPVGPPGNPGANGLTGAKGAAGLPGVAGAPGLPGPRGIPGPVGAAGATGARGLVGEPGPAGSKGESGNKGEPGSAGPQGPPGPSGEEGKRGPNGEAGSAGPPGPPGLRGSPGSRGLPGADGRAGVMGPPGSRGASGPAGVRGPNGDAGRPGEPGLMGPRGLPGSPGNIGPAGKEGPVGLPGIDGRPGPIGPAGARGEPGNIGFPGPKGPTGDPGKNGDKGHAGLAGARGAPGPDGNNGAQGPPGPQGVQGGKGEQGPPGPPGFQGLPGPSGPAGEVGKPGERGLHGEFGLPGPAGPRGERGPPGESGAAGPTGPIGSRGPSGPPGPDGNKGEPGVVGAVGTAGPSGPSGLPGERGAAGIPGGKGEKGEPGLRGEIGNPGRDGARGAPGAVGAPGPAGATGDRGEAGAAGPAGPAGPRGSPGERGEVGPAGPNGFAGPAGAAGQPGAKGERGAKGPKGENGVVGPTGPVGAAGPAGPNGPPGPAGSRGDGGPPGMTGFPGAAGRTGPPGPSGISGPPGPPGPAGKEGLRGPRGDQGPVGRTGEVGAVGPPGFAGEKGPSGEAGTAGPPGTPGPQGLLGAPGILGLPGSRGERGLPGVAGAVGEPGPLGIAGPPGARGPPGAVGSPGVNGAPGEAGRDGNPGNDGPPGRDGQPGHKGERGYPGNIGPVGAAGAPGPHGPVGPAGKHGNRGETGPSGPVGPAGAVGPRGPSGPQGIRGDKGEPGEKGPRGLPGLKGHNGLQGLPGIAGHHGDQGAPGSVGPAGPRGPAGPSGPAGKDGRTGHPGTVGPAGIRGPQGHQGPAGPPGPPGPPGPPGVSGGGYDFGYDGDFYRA
Method: GQLYKSILYGSGSGSRR (SEQ ID NO: 6) (Compound 10) was evaluated for binding affinity against the GQLYKSILYGSG (SEQ ID NO: 59) (Peptide X) binding domain without spacer and against the spacer sequence alone, GSGSGSRR (SEQ ID NO: 4) (Spacer A), results shown in FIG. 18. […] WREPSFSALS (SEQ ID NO: 8), also known as vWF-2× due to its binding to the von Willebran binding site on collagen, was evaluated for binding affinity with and without the GSGSGSRR (SEQ ID NO: 4) spacer.
50 μg/ml of Collagen Type I was adsorbed onto high bind plates by incubating overnight. Plates were then washed with PBS and blocked using 1% Non-fat milk in PBS for 1 hour. Molecule dilutions were prepared in 1% BSA in PBS and then incubated for 1 hour at 25° C. Plates were then washed with PBS containing 0.05% Tween 20. A 1:500 dilution of Streptavidin-HRP in 1% BSA PBS was prepared and added to the plates for 20 minutes. Plates were then washed with PBS and TMB solution was added for 10 minutes for color development. The color development was stopped using 0.16 M sulfuric acid and absorbance at […] was measured using a plate reader. Compound 10 was used as a reference standard for all EC50 results.

[3] = system: platelet binding to Type I fibrillar collagen; assay: Platelet aggregation: platelet binding to collagen under flow; format: cell-based; details: 2 mg/mL on collagen-coated slides, human whole blood, sheer rate 1000 s−1, 10 minutes; compared to Compound 1
Method: Type I fibrillar collagen was adsorbed to Ibidi μ-slides by overnight incubation at 2-8° C. The Ibidi μ-slides were rinsed with Phosphate Buffer Saline (PBS), and then blocked with 1% BSA in 1×PBS. Compound 10 (shown in FIG. 12B) and Compound 1 at 2 mg/mL (shown in 12A) were applied to Ibidi μ-slides and left to incubate. After 1 hour excess conjugates were rinsed away with 1×PBS. Freshly drawn human whole blood was prestained with Calcein AM (Live Fluorescent cell marker). Blood was pumped across the channels at a sheer rate of 1000 s−1 using a syringe pump for 10 minutes. As blood flows across the Ibidi μ-Slides, Fluorescent microscope was used to take images of aggregated fluorescently labeled platelets.

[4] = system: mouse model of Non-Alcoholic Steatohepatitis (NASH); assay: Non-Alcoholic Steatohepatitis (NASH) mouse model, liver collagen by Sirius Red; format: in vivo, C57BL/6 mice; details: week 5 to week 9; Compound 10 3×/week intravenous, Telmisartan daily oral; compared to the vehicle treated group
Method: The ability of the compounds to affect liver fibrosis was tested in a mouse model of Non-Alcoholic Steatohepatitis (NASH). C57BL/6 mice received a single subcutaneous injection of 200 μg streptozotocin after birth. Beginning at 4 weeks of age, animals were fed a high fat diet. […] A separate group of animals received daily oral administration of Telmisartan during the same period Animals were sacrificed at 9 weeks of age and the livers were collected for histological and biochemical analysis. Histological analysis of the livers for collagen content was performed using Sirius Red staining.

[5] = target: collagen (coated on 96-well plates, Example 2); assay: collagen-coated 96-well plate, biotin-labelled bioconjugate, streptavidin-HRP/TMB, absorbance at 450 nm (Example 2)
[6] = target: collagen (coated on 96-well plates, Example 2); assay: as above; remark: listed apart in the source
[7] = target: collagen (coated on 96-well plates, Example 2); assay: collagen-coated 96-well plate, biotin-labelled bioconjugate, streptavidin-HRP/TMB, absorbance at 450 nm (Example 2); Kd unit inferred, the concentration axis is in ug/ml
[8] = target: collagen (coated on 96-well plates, Example 2); assay: collagen-coated 96-well plate, biotin-labelled bioconjugate, streptavidin-HRP/TMB, absorbance at 450 nm (Example 2), the concentration axis is in ug/ml

- EC50 (read off the curve) [5]: 30 µg/mL
B1: Compound 12 (heparin bioconjugate of …-NHNH2) (peptide)
peptide: GQLYKSILYGSGRRRGSG
modifications: not fully specified; C-terminal hydrazide (-NHNH-) bonded to a carboxyl of heparin; part of the peptides biotin-labelled

- EC50 (read off the curve) [6]: 50 µg/mL
B2: Compound 11 (heparin bioconjugate of …-NHNH2) (peptide)
peptide: GQLYKSILYGSRRGS
modifications: not fully specified; C-terminal hydrazide (-NHNH-) bonded to a carboxyl of heparin; part of the peptides biotin-labelled

- Kd [7]: 103 µg/mL and 113 µg/mL
B3: Compound 5 (heparin bioconjugate of …-NHNH2) (peptide)
peptide: GQLYKSILYGSGSGSGS
modifications: not fully specified; C-terminal hydrazide (-NHNH-) bonded to a carboxyl of heparin; part of the peptides biotin-labelled

- EC50 (read off the curve) [5]: 50 µg/mL
- EC50 [8]: 40.4 µg/mL and 32.1 µg/mL
- Kd [7]: 42.5 µg/mL
- EC50 (read off the curve) [6]: 40 µg/mL
B5: Compound 4 (heparin bioconjugate of …-NHNH2) (peptide)
peptide: GQLYKSILYGSGRRGSG
modifications: not fully specified; C-terminal hydrazide (-NHNH-) bonded to a carboxyl of heparin; part of the peptides biotin-labelled

- EC50 (read off the curve) [5]: 60 µg/mL
B10: Compound 14 (heparin bioconjugate of …) (peptide)
peptide: GQLYKSILYGSGKKGSG
modifications: also: conjugated to heparin

- EC50 (read off the curve) [5]: 60 µg/mL
B11: Compound 13 (heparin bioconjugate of …-NHNH2) (peptide)
peptide: GQLYKSILYGSGRGSGSGSG
modifications: not fully specified (C-terminus); printed as GQLYKSILYGSGRGSGSGSG-; also: about 5 peptides per heparin (16 kDa), part of the peptides biotin-labelled

Continued, molecule first:

Molecule: Compound 8: heparin bioconjugate with peptide GQLYKSILYGSRGSG-NHNH2 (Peptide 8), 1:8 glycan to peptide (also: heparin bioconjugate, 1:8 glycan to peptide, attachment site not given here)
- collagen binding EC50 [1]: increases EC50; also recorded: slightly increases EC50

Molecule: Compound 4: heparin bioconjugate with peptide GQLYKSILYGSGRRGSG-NHNH2 (Peptide 4), 1:8 glycan to peptide (also: heparin bioconjugate, 1:8 glycan to peptide, attachment site not given here)
- collagen binding affinity (Kd) ([1]; compared to Compound 5 and Compound 3, FIG. 11): significant increase in collagen binding affinity (lower Kd)

Molecule: WREPSFSALSGSGSGSRR [WREPSFSALSGSGSGSRR (SEQ ID NO: 110)]
- collagen binding affinity [2]: increase in binding affinity

Molecule: Compound 10: heparin bioconjugate with peptide GQLYKSILYGSGSGSRR-NHNH2 (Peptide 10), 1:8 glycan to peptide (also: heparin bioconjugate, 1:8 glycan to peptide, attachment site not given here)
- platelet binding to Type I fibrillar collagen [3]: inhibits platelet binding to Type I fibrillar collagen
- collagen binding affinity [2]: greater binding affinity than the binding domain or the spacer in isolation
- levels of collagen in the liver (Sirius Red staining) [4]: decreased levels of collagen in the liver
- collagen binding EC50 [1]: decreases the EC50

Molecule: CCCc1nc2c(C)cc(-c3nc4ccccc4n3C)cc2n1Cc1ccc(-c2ccccc2C(=O)O)cc1 [Telmisartan, reference compound]
- levels of collagen in the liver (Sirius Red staining) [4]: decreased levels of collagen in the liver

B4: Compound 19 (heparin bioconjugate of (…)2-KRRGSG-NHNH2) (peptide)
peptide 1: RVMHGLHLGDDEGSG
peptide 2: KRRGSG
modifications: not fully specified (C-terminus); printed as (RVMHGLHLGDDEGSG)2-KRRGS; also: two copies of chain 1 bonded to the N-terminal branching lysine of chain 2, about 3 branched peptides per heparin (16 kDa)
- EC50 (read off the curve) [5]: 100 µg/mL

B6: Compound 9 (heparin bioconjugate of …-NHNH2) (peptide)
peptide: GQLYKSILYRRGSGSGS
modifications: not fully specified; C-terminal hydrazide (-NHNH-) bonded to a carboxyl of heparin; part of the peptides biotin-labelled
- EC50 (read off the curve) [5]: 50 µg/mL

B7: Compound 8 (heparin bioconjugate of …-NHNH2) (peptide)
peptide: GQLYKSILYGSRGSG
modifications: not fully specified; C-terminal hydrazide (-NHNH-) bonded to a carboxyl of heparin; part of the peptides biotin-labelled
- EC50 [8]: 47.1 µg/mL
- EC50 (read off the curve) [6]: 60 µg/mL

B8: Compound 20 (peptide)
peptide conjugated to heparin: GSGGQLYKSILY
modifications: not fully specified (N-terminus); also: part of the peptides biotin-labelled, heparin backbone average 16 kDa
- Kd [7]: 35.1 µg/mL

B9: Compound 3 (heparin bioconjugate of …-NHNH2) (peptide)
peptide: GQLYKSILYGSG
modifications: not fully specified; C-terminal hydrazide (-NHNH-) bonded to a carboxyl of heparin; part of the peptides biotin-labelled
- Kd [7]: 112 µg/mL

B12: Compound 6 (peptide)
peptide conjugated to heparin: GQLYKSILYGSRGRGSG
modifications: not fully specified; C-terminal hydrazide (-NHNH2) coupled to heparin; part of the peptides biotin-labelled
- EC50 [8]: 63.3 µg/mL

B13: Compound 7 (peptide)
peptide conjugated to heparin: GQLYKSILYGRSGRGSG
modifications: not fully specified; C-terminal hydrazide (-NHNH2) coupled to heparin; part of the peptides biotin-labelled
- EC50 [8]: 44.2 µg/mL

B14: Compound 10 (heparin bioconjugate of …-NHNH2) (peptide)
peptide: GQLYKSILYGSGSGSRR
modifications: not fully specified; C-terminal hydrazide (-NHNH-) bonded to a carboxyl of heparin; part of the peptides biotin-labelled
- EC50 (read off the curve) [5]: 20 µg/mL
- EC50 [8]: 15 µg/mL
